Results: patent US20090087417A1, “METHODS FOR PROMOTING DOPAMINERGIC NEURONAL DEVELOPMENT BY USING NG4A-SUBFAMILY AND WNT-LIGANDS” (priority 2002, published 2009)

Columns and labels:
Type in all cases: cell-based, rat
[1] = tested on: E13.5 primary cultures from the cerebral cortex; test: Induction of TH in Nurr1+ E13.5 cerebral cortex primary cultures; conditions: for proportion of Nurr1 positive cortical cells that expressed TH: Wnt ligands or co-culture with P1 astrocytes
Protocol: (§1) Ventral mesencephala and cerebral cortices from embryos E13.5-14.5 obtained from timed-mated Sprague-Dawley rats were dissected, mechanically dissociated and plated at a final density of 1×10^5 cells/cm2 on poly-D-lysine coated 12- or 24-well plates in a defined, serum-free medium (N2, consisting of a 1:1 mixture of F12 and DMEM containing insulin (10 ng/ml), transferrin (100 μg/ml), putrescine (100 μM), progesterone (20 nM), selenium (30 nM), glucose (6 mg/ml), and bovine serum albumin (1 mg/ml)). Purified Type 1 astrocytes were obtained from mixed glial cultures derived from the VM or CTX of P1 rats according to a standard protocol (Wagner et al., 1999). After shaking and replating into 12-well plates, astrocytes were grown to confluency in 15% fetal bovine serum-containing media and changed to N2 medium, at which time freshly dissected VM or CTX cells were plated on top of the astrocytes at a density of 1×10^5 cells/cm2. All factors were added once, at the initiation of culture, with the exception of 5-bromodeoxyuridine (BrdU), which was added 4-6 hours prior to fixation. Cultures were maintained in a humidified 5% CO2, 95% air incubator at 37° C. and fixed after given time periods with 4% paraformaldehyde for 45 minutes prior to immunocytochemical analysis.
(§2) Fixed cultures were incubated with one of the following antibodies, diluted appropriately in phosphate-buffered saline (PBS) containing 1% bovine serum albumin and 0.3% Triton-X 100: mouse anti-BrdU, 1:50 (DAKO, Denmark), mouse anti-β-tubulin, Type III (TuJ1), 1:250 (Sigma), mouse anti-TH, 1:1000 (Incstar, USA), rabbit anti-TH, 1:250 (PelFreeze); rabbit anti-Nurr1, 1:2000 (gift from Dr. T. Perlmann, Sweden), rabbit anti-Nurr1, 1:1000 (Santa Cruz, USA) or mouse anti-Nurr1, 1:250 (BD Transduction Laboratories, USA), rabbit anti Adh2 1:4000 (gift from Dr. R. Lindahl, South Carolina). Incubations were either carried out at 4° C. overnight, or at room temperature for 1 hour. Both processes yielded similar results. After washing, cultures were incubated for 1-3 hr with appropriate secondary antibodies (biotinylated 1:500; CY2-, FITC-, or rhodamine-coupled horse-anti-mouse IgG 1:100; or goat-anti-rabbit IgG 1:100; all from Vector, USA), in the same dilution buffer. Brightfield immunostaining was visualized with the Vector Laboratory ABC immunoperoxidase kit, using either NovaRed (red), or AEC (red), SG or 3-3′ dimaminobenzidine tetrahydrochloride (DAB 0.5 mg/ml)/nickel chloride (1.6 mg/ml) (gray/black), or VIP (violet) substrates. Double-staining was performed by sequential single staining as described. The order of staining was only critical for BrdU-double labeling, in which case the BrdU procedure was always performed second. […] Photos were acquired with a Zeiss Axioplan 100M microscope and collected with a Hamamatsu camera C4742-95 (with the QED imaging software).
Only clearly stained cells were counted as positive cells. Spheres were considered positive if they contained one or more positive cell. Quantitative immunocytochemical data on individual cells represent means and standard errors of counts obtained by a blinded observer from 10-20 non-overlapping fields (cells) or in the entire well (clusters), in each of 3-4 wells per condition from 3-4 independent experiments, unless stated otherwise. […]

[2] = tested on: VM cultures; test: TuJ1+ neurons and proliferating clusters, proportion dopaminergic, in VM cultures; conditions: for total number of TuJ1+ neurons: FIG. 3f
Protocol: as §1, §2
Only clearly stained cells were counted as positive cells. Spheres were considered positive if they contained one or more positive cell. Quantitative immunocytochemical data on individual cells represent means and standard errors of counts obtained by a blinded observer from 10-20 non-overlapping fields (cells) or in the entire well (clusters), in each of 3-4 wells per condition from 3-4 independent experiments, unless stated otherwise. For each variable, initial statistical comparisons were performed by a global ANOVA, with multiple factors of dose, time point, treatment and/or region; if significant interactions between treatment and any other variable existed, data were further divided into separate times, doses or regions. Fisher's protected least significant difference was used post hoc to identify specific points at which the treatments differed from controls (or each other) only when significant interactions between factor treatment and other variables occurred. Significance for all tests was assumed at the level of p<0.05. […]

[3] = tested on: ventral mesencephalic Nurr1+ neuronal precursors; test: Conversion of VM Nurr1+ precursors into Nurr1+/TH+ dopaminergic neurons (double immunostaining); conditions: VM cultures; control approximately 50%
Protocol: as §1
B1A fibroblast lines were cotransfected with the mFz8CRD-IgG/pRK5 and the pIRES puro 2 (Clontech, BD Bioscience, Erembodegem, Belgium) plasmids, using Lipofectamine Plus reagent (Invitrogen, Lidingo, Sweden) according to the instruction of the manufacturer. Upon selection for puromycin resistance (1 μg/ml Sigma, Stockholm, Sweden), clones were isolated and expanded. A clone overexpressing Fz8CRD 700× (real time RT-PCR analysis) was identified. Harvesting and partial purification of Fz8CRD conditioned media were performed as described previously. In all the blocking experiments performed, the Fz8CRD and B1A control partial purified conditioned medias were used at a final concentration of 125-250 μg/ml. […]
Only clearly stained cells were counted as positive cells. […]

Molecule | proportion of Nurr1 positive cortical cells that expressed TH [1] | proportion of VM clusters containing dopaminergic neurons ([2]; FIG. 3e) | total number of TuJ1+ neurons [2] | proportion of TH+ (dopaminergic) neurons ([2]; FIG. 3g) | proportion of Nurr1 positive cells that expressed TH (Nurr1+/TH+) [3] [%] | increase in number of double Nurr1/TH+ cells compared to Wnt-1 ([1]; 3 days) [fold] | increase in number of double Nurr1/TH+ cells compared to control ([1]; 3 days) [fold] | enrichment for dopaminergic clusters ([2]; FIG. 3e) | enrichment for dopaminergic neurons ([2]; FIG. 3g) | increase in number of proliferating clusters containing TuJ1+ cells ([2]; compared to control (FIG. 3d))
Wnt-1: Partially purified conditioned media from stable fibroblast cell line engineered to secrete Wnt-1 ligand (protein, left off: small tags and cut ends) ANSSGRWWGIVNIASSTNLLTDSKSLQLVLEPSLQLLSRKQRRLIRQNPGILHSVSGGLQSAVRECKWQFRNRRWNCPTAPGPHLFGKIVNRGCRETAFIFAITSAGVTHSVARSCSEGSIESCTCDYRRRGPGGPDWHWGGCSDNIDFGRLFGREFVDSGEKGRDLRFLMNLHNNEAGRTTVFSEMRQECKCHGMSGSCTVRTCWMRLPTLRAVGDVLRDRFDGASRVLYGNRGSNRASRAELLRLEPEDPAHKPPSPHDLVYFEKSPNFCTYSGRLGTAGTAGRACNSSSPALDGCELLCCGRGHRTRTQRVTERCNCTFHWCCHVSCRNCTHTRVLHECL | significant increase | about 30% | increased | did not increase | 70 | – | – | – | – | –
Wnt-5a: Partially purified conditioned media from stable fibroblast cell line engineered to secrete Wnt-5a ligand (protein, left off: small tags and cut ends) IIGAQPLCSQLAGLSQGQKKLCHLYQDHMQYIGEGAKTGIKECQYQFRHRRWNCSTVDNTSVFGRVMQIGSRETAFTYAVSAAGVVNAMSRACREGELSTCGCSRAARPKDLPRDWLWGGCGDNIDYGYRFAKEFVDARERERIHAKGSYESARILMNLHNNEAGRRTVYNLADVACKCHGVSGSCSLKTCWLQLADFRKVGDALKEKYDSAAAMRLNSRGKLVQVNSRFNSPTTQDLVYIDPSPDYCVRNESTGSLGTQGRLCNKTSEGMDGCELMCCGRGYDQFKTVQTERCHCKFHWCCYVKCKKCTEIVDQFVCK | significant increase | – | did not increase | – | 90 | > 4 | > 40 | more than two | more than two | did not increase
